# T1: λ cI-UvrB 35–252 (1a2) fusion protein (E. coli, UniProt P0A8F8 35-252)
# T1 construct: UvrB, E. coli, residues 35-252 (domains 1a and 2); also called UvrB fragment containing domains 1a and 2; source: bacterial two-hybrid fusion, pRA03 derivative, in E. coli KS1; not shown: λ cI residues 1–236, N-terminal, kept
# T1 sequence (looked up): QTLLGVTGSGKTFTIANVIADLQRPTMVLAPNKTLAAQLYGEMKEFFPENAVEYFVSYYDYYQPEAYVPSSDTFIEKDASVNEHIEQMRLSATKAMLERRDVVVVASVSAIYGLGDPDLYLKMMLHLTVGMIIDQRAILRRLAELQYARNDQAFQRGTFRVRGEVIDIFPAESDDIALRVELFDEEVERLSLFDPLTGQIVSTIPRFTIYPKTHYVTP
# T2: λ cI-UvrB 527–673 (4) fusion protein (E. coli, UniProt P0A8F8 527-673)
# T2 construct: UvrB, E. coli, residues 527-673 (domain 4); also called UvrB domain 4; source: bacterial two-hybrid fusion, pRA03 derivative, in E. coli KS1; not shown: λ cI residues 1–236, N-terminal, kept
# T2 sequence (looked up): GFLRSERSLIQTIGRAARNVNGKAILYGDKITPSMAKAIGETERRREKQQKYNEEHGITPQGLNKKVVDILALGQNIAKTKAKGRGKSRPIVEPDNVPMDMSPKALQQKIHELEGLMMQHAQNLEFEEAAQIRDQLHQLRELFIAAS
# T3: λ cI-UvrB 251–547 (1b3) fusion protein (E. coli, UniProt P0A8F8 251-547)
# T3 construct: UvrB, E. coli, residues 251-547 (domains 1b and 3); also called UvrB domains 1b and 3; source: bacterial two-hybrid fusion, pRA03 derivative, in E. coli KS1; not shown: λ cI residues 1–236, N-terminal, kept
# T3 sequence (looked up): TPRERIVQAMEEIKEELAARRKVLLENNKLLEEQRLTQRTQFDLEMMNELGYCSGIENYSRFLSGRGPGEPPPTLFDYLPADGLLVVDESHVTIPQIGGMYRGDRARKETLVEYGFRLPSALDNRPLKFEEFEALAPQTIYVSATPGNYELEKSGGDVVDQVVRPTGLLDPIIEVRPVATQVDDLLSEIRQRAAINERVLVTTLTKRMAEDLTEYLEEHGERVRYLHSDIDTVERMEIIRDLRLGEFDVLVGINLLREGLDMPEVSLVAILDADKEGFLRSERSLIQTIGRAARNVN
# T4: UvrD (helicase II), native untagged (E. coli, UniProt P03018 1-720)
# T4 construct: UvrD (helicase II), E. coli MG1655, whole coding region from start to stop codon (720 residues); also called full-length UvrD; wild-type UvrD; source: E. coli BL21(DE3), pETDUET-UvrD, purified (heparin, MonoQ)
# T4 sequence (looked up): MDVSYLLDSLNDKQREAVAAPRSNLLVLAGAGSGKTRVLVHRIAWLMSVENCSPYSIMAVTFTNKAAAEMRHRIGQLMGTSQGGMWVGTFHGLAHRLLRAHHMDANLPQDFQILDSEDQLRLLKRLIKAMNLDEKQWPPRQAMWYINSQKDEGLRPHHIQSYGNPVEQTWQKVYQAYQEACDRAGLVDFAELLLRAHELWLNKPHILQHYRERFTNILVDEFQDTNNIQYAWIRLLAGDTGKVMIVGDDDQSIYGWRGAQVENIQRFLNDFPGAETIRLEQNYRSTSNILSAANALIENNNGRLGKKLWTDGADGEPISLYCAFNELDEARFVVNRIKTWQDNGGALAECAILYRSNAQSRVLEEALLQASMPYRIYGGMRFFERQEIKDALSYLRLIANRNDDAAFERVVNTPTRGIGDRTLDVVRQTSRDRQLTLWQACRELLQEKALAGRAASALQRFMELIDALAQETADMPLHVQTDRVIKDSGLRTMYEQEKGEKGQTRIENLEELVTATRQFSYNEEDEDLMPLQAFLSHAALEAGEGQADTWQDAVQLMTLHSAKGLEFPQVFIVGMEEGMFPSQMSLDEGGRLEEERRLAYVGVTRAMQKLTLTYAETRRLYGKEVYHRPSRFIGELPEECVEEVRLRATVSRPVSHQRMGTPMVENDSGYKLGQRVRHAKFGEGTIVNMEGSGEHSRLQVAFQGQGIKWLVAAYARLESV
# T5: ^bioUvrD, full-length UvrD biotinylated at the N-terminus (E. coli, UniProt P03018 1-720, biotin on the lysine of the N-terminal tag … (biotinylated in vivo by BirA))
# T5 construct: UvrD (helicase II), E. coli MG1655, whole coding region (720 residues); The tag was inserted at the NcoI site that overlaps the start codon of uvrD; also called biotinylated UvrD; source: E. coli BL21(DE3) with pBirACm and pET28a-^bioUvrD, purified (ammonium sulphate, Softlink Avidin, HiTrap heparin)
# T5 sequence (looked up): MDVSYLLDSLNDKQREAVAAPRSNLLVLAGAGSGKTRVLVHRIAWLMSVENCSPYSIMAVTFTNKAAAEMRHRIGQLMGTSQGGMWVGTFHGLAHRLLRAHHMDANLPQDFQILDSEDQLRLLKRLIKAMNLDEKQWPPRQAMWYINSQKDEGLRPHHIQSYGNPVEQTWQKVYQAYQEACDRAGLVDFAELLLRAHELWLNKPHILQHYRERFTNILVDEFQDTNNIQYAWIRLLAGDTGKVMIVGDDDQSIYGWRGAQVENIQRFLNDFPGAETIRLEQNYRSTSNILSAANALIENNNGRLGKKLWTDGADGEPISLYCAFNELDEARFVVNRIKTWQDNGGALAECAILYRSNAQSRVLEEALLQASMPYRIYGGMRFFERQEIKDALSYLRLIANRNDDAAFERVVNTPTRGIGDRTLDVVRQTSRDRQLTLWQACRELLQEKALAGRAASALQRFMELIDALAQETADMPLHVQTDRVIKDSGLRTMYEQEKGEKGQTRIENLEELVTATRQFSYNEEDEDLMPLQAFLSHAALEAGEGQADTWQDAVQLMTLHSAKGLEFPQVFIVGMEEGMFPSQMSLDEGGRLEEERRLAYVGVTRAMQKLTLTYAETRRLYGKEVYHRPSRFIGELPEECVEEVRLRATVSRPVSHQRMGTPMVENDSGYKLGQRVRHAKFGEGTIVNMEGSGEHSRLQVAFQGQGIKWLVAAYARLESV
# Tests used:
# [1] = system: UvrD1-647 (Escherichia coli MG1655); test: DNA-dependent ATPase, poly(dT) titration (KDNA, half-maximal activity); conditions: NER complex: 40 mM HEPES pH 8.0, 100 mM KCl, 8 mM MgCl2, 5 mM DTT, 100 ug/ml BSA, 11% glycerol, 2 mM ATP with regeneration system, 37 C; ATPase assay …
# [2] = system: UvrD (helicase II) (Escherichia coli MG1655); test: as above; conditions: NER complex: 40 mM HEPES pH 8.0, 100 mM KCl, 8 mM MgCl2, 5 mM DTT, 100 ug/ml BSA, 11% glycerol, 2 mM ATP with regeneration system, 37 C; ATPase assay …
# [3] = molecular target: T1, λ cI-UvrB 35–252 (1a2) fusion protein; test: two-hybrid; bacterial 2-hybrid (Dove and Hochschild) in E. coli KS1: UvrD fragments fused to RNA polymerase α 1–248, UvrB fragments fused to λ cI 1–236; chromosomal lacZ reporter, β-galactosidase in Miller Units; LB with 1 mM IPTG, 30 °C, mid-log phase; conditions: partners not purified
# [4] = molecular target: T2, λ cI-UvrB 527–673 (4) fusion protein; test: as above; conditions: partners not purified
# [5] = molecular target: T3, λ cI-UvrB 251–547 (1b3) fusion protein; test: as above; conditions: partners not purified
# [6] = molecular target: T4, UvrD (helicase II), native untagged; test: SPR; BIAcore 2000; UvrB or UvrB_(1–414) immobilised on CM5 chip by amine coupling (~8000 RU); UvrD or UvrD_(1–647) injected at 0.05-4.0 μM, 20 μl/min, 25 °C; 10 mM HEPES pH 7.4, 150 mM NaCl, 3 mM EDTA, 0.005% Tween20; conditions: both partners purified
# [7] = molecular target: T5, ^bioUvrD, full-length UvrD biotinylated …; test: SPR; BIAcore 2000; ^bioUvrD or ^bioUvrD_(1–647) immobilised on streptavidin (SA) chip (~7000 RU); UvrB or UvrB_(1–414) injected at 0.05-4.0 μM, 20 μl/min, 25 °C; 10 mM HEPES pH 7.4, 150 mM NaCl, 3 mM EDTA, 0.005% Tween20; conditions: both partners purified
Molecule,β-galactosidase activity [3] [Miller Units],binding result [6],binding result [7],also measured
poly(dT),,,,K half (uM nucleotides) [1]: 2.5; K half (uM nucleotides) [2]: 0.54
"α-UvrD 1–280 (1a1b1a) fusion protein (domain or fragment, E. coli, UniProt P03018 1-280, looked up, UvrD (helicase II), E. coli, residues 1-280 (domains 1a and 1b); also called N-terminal fragment of UvrD; UvrD domains 1a and 1b; source: bacterial two-hybrid fusion, pRA02 derivative, in E. coli KS1; not shown: RNA polymerase α subunit residues 1–248, N-terminal, kept) MDVSYLLDSLNDKQREAVAAPRSNLLVLAGAGSGKTRVLVHRIAWLMSVENCSPYSIMAVTFTNKAAAEMRHRIGQLMGTSQGGMWVGTFHGLAHRLLRAHHMDANLPQDFQILDSEDQLRLLKRLIKAMNLDEKQWPPRQAMWYINSQKDEGLRPHHIQSYGNPVEQTWQKVYQAYQEACDRAGLVDFAELLLRAHELWLNKPHILQHYRERFTNILVDEFQDTNNIQYAWIRLLAGDTGKVMIVGDDDQSIYGWRGAQVENIQRFLNDFPGAETIRLE",111,,,β-galactosidase activity [4]: 86 Miller Units; β-galactosidase activity [5]: 336 Miller Units
"α-UvrD 645–720 (C-extension) fusion protein (domain or fragment, E. coli, UniProt P03018 645-720, looked up, UvrD (helicase II), E. coli, residues 645-720 (unstructured C-terminal extension); also called C-terminal extension of UvrD (residues 645–720); source: bacterial two-hybrid fusion, pRA02 derivative, in E. coli KS1; not shown: RNA polymerase α subunit residues 1–248, N-terminal, kept) RLRATVSRPVSHQRMGTPMVENDSGYKLGQRVRHAKFGEGTIVNMEGSGEHSRLQVAFQGQGIKWLVAAYARLESV",140,,,
"UvrB, N-terminally hexa-His-tagged (natural protein, E. coli, UniProt P0A8F8 1-673, looked up, UvrB, E. coli MG1655, whole coding region from start to stop codon (673 residues); also called full-length UvrB; source: E. coli XL1-Blue, pQE30UvrB, purified (Ni HiTrap chelating column)) MSKPFKLNSAFKPSGDQPEAIRRLEEGLEDGLAHQTLLGVTGSGKTFTIANVIADLQRPTMVLAPNKTLAAQLYGEMKEFFPENAVEYFVSYYDYYQPEAYVPSSDTFIEKDASVNEHIEQMRLSATKAMLERRDVVVVASVSAIYGLGDPDLYLKMMLHLTVGMIIDQRAILRRLAELQYARNDQAFQRGTFRVRGEVIDIFPAESDDIALRVELFDEEVERLSLFDPLTGQIVSTIPRFTIYPKTHYVTPRERIVQAMEEIKEELAARRKVLLENNKLLEEQRLTQRTQFDLEMMNELGYCSGIENYSRFLSGRGPGEPPPTLFDYLPADGLLVVDESHVTIPQIGGMYRGDRARKETLVEYGFRLPSALDNRPLKFEEFEALAPQTIYVSATPGNYELEKSGGDVVDQVVRPTGLLDPIIEVRPVATQVDDLLSEIRQRAAINERVLVTTLTKRMAEDLTEYLEEHGERVRYLHSDIDTVERMEIIRDLRLGEFDVLVGINLLREGLDMPEVSLVAILDADKEGFLRSERSLIQTIGRAARNVNGKAILYGDKITPSMAKAIGETERRREKQQKYNEEHGITPQGLNKKVVDILALGQNIAKTKAKGRGKSRPIVEPDNVPMDMSPKALQQKIHELEGLMMQHAQNLEFEEAAQIRDQLHQLRELFIAAS",,binds,binds,
"UvrB_(1–414), N-terminally His-tagged (domain or fragment, E. coli, UniProt P0A8F8 1-414, looked up, also called truncated derivative of UvrB comprising domains 1a, 2 and 1b) MSKPFKLNSAFKPSGDQPEAIRRLEEGLEDGLAHQTLLGVTGSGKTFTIANVIADLQRPTMVLAPNKTLAAQLYGEMKEFFPENAVEYFVSYYDYYQPEAYVPSSDTFIEKDASVNEHIEQMRLSATKAMLERRDVVVVASVSAIYGLGDPDLYLKMMLHLTVGMIIDQRAILRRLAELQYARNDQAFQRGTFRVRGEVIDIFPAESDDIALRVELFDEEVERLSLFDPLTGQIVSTIPRFTIYPKTHYVTPRERIVQAMEEIKEELAARRKVLLENNKLLEEQRLTQRTQFDLEMMNELGYCSGIENYSRFLSGRGPGEPPPTLFDYLPADGLLVVDESHVTIPQIGGMYRGDRARKETLVEYGFRLPSALDNRPLKFEEFEALAPQTIYVSATPGNYELEKSGGDVVDQVVR",,binds,binds,

# Reference: paper PMC2997466, “The unstructured C-terminal extension of UvrD interacts with UvrB, but is dispensable for nucleotide excision repair” (DNA Repair, 2009)
